# Laboratory results published in PMC10850148.
# T1: OY-M SAP05 (residues 33-135)
# T1 chain: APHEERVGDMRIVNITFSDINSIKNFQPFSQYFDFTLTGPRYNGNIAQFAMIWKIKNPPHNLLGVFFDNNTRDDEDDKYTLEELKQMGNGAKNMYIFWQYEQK
# B1: AtGATA18 ZnF domain, Q8LC79 R182A (protein)
# chain: GDSLLARRCANCDTTSTPLWRNGPRGPKSLCNACGIAFKKEERRTTAATGNT
# B2: AtGATA18 ZnF domain, Q8LC79 R188A (protein)
# chain: GDSLLARRCANCDTTSTPLWRNGPRGPKSLCNACGIRFKKEEARTTAATGNT
# B3: AtGATA18 ZnF domain, Q8LC79 K185A (protein)
# chain: GDSLLARRCANCDTTSTPLWRNGPRGPKSLCNACGIRFKAEERRTTAATGNT
# B4: AtGATA18 ZnF domain, Q8LC79 I181A (protein)
# chain: GDSLLARRCANCDTTSTPLWRNGPRGPKSLCNACGARFKKEERRTTAATGNT
# B5: AtSPL5 ZnF domain (residues 60-124), Q9S758 S108A (protein)
# chain: SRLCQVDRCTVNLTEAKQYYRRHRVCEVHAKASAATVAGVRQRFCQQCARFHELPEFDEAKRSCR
# Key:
# [1] = target: AtGATA18 ZnF domain (Arabidopsis thaliana) (UniProt Q8LC79); test: ITC
# [2] = target: AtSPL5 ZnF domain (residues 60-124) (Arabidopsis thaliana) (UniProt Q9S758); test: ITC
# [3] = target: MqGATA triple mutant (Y-R, M-K, N-R) (Macrosteles quadrilineatus); test: ITC
# [4] = target: AtGATA18 ZnF domain (Arabidopsis thaliana) (UniProt Q8LC79); test: ITC; MicroCal PEAQ-ITC, 16 °C, 20 mM Tris-HCl pH 7.5, 150 mM NaCl; 660-700 μM protein injected into 40-50 μM protein in the cell; SAP05 titrated to the transcription factor; one-site model
# [5] = target: AtSPL5 ZnF domain (residues 60-124) (Arabidopsis thaliana) (UniProt Q9S758); test: as above
# AtGATA18 ZnF domain = AtGATA18 ZnF domain (UniProt Q8LC79); test: ITC
# [6] = target: AtSPL5 ZnF domain (residues 60-124) (UniProt Q9S758); test: ITC
# [7] = target: T1, OY-M SAP05 (residues 33-135); test: ITC; conditions: chain shown with the change
molecule,measurement,setting,value
OY-M SAP05 (residues 33-135) (domain or fragment),Kd,[1],140 nM
same,Kd,[2],420 nM
same,Kd,[3],900 nM
WBDLa SAP05 double mutant M86I-K70T (natural protein),Kd,[4],2700 nM
same,Kd,[5],2600 nM
binary complex AtRPN10-SAP05 (from UniProt P55034 33-135; P55034 1-193),Kd,[1],100 nM
same,Kd,[2],370 nM
OY-M SAP05 E107A (domain or fragment),fold decrease of binding affinity against wild-type SAP05,[5],15 fold
OY-M SAP05 (residues 33-135) I84A,Kd,AtGATA18 ZnF domain,> 100000 nM
OY-M SAP05 (residues 33-135) D106A,Kd,AtGATA18 ZnF domain,4000 nM
OY-M SAP05 (residues 33-135) E107A,Kd,[6],6300 nM
same,Kd,AtGATA18 ZnF domain,1300 nM
OY-M SAP05 (residues 33-135) D108A,Kd,AtGATA18 ZnF domain,5400 nM
B1,Kd,[7],4400 nM
B2,Kd,[7],500 nM
B3,Kd,[7],580 nM
B4,Kd,[7],5000 nM
B5,Kd,[7],1400 nM
